T1: Full length His-tagged MALT1 (human, UniProt Q9UDY8 2-824)
T1 construct: mature; also called purified, full length MALT1; FL MALT1; not shown: His tag
T1 sequence (looked up): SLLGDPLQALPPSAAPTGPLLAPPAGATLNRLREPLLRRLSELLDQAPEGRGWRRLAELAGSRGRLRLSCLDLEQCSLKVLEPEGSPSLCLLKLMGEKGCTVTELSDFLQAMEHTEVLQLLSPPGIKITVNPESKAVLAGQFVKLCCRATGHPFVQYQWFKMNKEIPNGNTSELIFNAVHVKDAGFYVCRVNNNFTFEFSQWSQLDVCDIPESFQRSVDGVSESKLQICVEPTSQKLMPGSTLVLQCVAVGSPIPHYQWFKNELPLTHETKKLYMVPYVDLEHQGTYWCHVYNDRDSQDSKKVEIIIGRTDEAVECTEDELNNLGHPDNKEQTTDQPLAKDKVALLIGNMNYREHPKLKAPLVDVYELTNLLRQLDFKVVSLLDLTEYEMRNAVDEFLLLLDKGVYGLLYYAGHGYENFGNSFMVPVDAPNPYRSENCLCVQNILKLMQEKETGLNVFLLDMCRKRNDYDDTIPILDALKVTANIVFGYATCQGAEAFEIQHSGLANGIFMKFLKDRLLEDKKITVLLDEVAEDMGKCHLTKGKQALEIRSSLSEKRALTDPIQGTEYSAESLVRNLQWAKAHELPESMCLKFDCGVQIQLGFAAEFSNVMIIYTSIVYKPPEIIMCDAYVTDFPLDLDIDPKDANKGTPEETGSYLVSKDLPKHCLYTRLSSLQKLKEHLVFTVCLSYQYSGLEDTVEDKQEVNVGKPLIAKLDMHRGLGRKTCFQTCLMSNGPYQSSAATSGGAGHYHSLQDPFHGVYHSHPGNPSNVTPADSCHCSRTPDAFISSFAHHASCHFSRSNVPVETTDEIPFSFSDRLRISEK

T2: BCL10^E140X (recombinant, after 3C cleavage of the MBP tag)
T2 chain: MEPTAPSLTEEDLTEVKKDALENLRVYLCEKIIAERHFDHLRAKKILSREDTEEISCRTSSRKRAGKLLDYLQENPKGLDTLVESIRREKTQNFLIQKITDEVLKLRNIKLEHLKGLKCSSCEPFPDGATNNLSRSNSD

T3: BCL10^WT (recombinant, full-length, after 3C cleavage of the MBP tag)
T3 chain: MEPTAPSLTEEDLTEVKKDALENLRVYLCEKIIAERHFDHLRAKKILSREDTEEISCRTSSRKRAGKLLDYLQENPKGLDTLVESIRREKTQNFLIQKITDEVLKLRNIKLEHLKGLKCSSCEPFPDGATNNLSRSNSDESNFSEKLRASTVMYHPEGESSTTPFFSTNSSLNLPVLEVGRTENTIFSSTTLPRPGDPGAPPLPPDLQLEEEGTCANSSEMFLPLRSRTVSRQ

T4: BCL10^R58Q (recombinant, full-length, after 3C cleavage of the MBP tag)
T4 chain: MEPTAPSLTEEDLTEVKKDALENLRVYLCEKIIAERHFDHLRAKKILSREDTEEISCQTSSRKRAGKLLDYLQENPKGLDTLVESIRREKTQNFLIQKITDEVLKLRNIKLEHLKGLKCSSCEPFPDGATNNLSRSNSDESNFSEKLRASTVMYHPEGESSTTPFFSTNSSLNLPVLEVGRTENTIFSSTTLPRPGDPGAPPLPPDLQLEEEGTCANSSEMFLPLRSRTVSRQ


How the values were obtained:
[1] = target: the molecule itself; test: confocal fluorescence microscopy of Alexa488-BCL10 filaments 4 h after 3C cleavage of MBP; self-association
Procedure: To determine the mechanism through which BCL10 mutants might confer a biochemical gain of function, full-length BCL10^WT, BCL10^E140X and BCL10^R58Q fused to a 3C protease-cleavable maltose binding protein (MBP) at the N-terminus to keep the proteins in a monomeric state were expressed and purified (FIG. 9A). The purified proteins were labeled with Alexa488 through cysteine residues in the unstructured C-terminal region. Spontaneous filament formation was then assessed by confocal fluorescence microscopy as a function of BCL10 concentration 4 h after mixing with the 3C protease to remove the MBP tag. […] The kinetics of filament formation by these proteins was imaged at […] concentration, which is above the concentration of polymerization for WT and these mutant BCL10 proteins using time lapse confocal fluorescence microscopy.

[2] = target: T1, Full length His-tagged MALT1; test: negative staining EM of BCL10 filaments incubated with MALT1
Procedure: This new MALT1 binding domain is deleted from BCL10^E140X. The inventors next explored whether there was any impairment in MALT1 recruitment to BCL10 filaments, by generating BCL10^WT and BCL10^E140X filaments in vitro and incubating them with purified, full length MALT1 followed by negative staining electron microscopy (EM). […] However, this experiment may not provide sufficient resolution to show whether MALT1 distribution on the different BCL10 polymers was altered. Therefore, cryo-EM data were then collected on a Titan Krios microscope operating ats 300 keV and equipped with a Falcon II direct electron detector. The cryo-EM structure of BCL10^E140X filaments in complex with MALT1 was thus determined at 4.3 Å resolution.
Given that this new MALT1 binding domain is deleted from BCL10^E140X we next explored whether there was any impairment in MALT1 recruitment to BCL10 filaments, by generating BCL10^WT and BCL10^E140X filaments in vitro and incubating them with purified, full length MALT1 followed by negative staining EM. […] The structure of the BCL10^E140X filament with MALT1 was highly similar to that of the BCL10^WT filament with MALT1 at 4.9 Å resolution, in which the DDS of MALT1 bind the CARD of BCL10 and decorate the outside of the core CARD filament (FIG. 11G-I).

[3] = target: T2, BCL10^E140X (recombinant, after 3C …)
[4] = target: T3, BCL10^WT (recombinant, full-length, …)
[5] = target: T4, BCL10^R58Q (recombinant, full-length, …)

Row | binding result [2] | Binder | concentration of polymerization [1] [nM] | BCL10 polymerization kinetics by fluorescence quenching (3 µM Alexa488-BCL10, MALT1 at 0, 1.5, 3, 6 and 12 µM) [3] | BCL10 polymerization kinetics by fluorescence quenching (3 µM Alexa488-BCL10, MALT1 at 0, 1.5, 3, 6 and 12 µM) [4] | BCL10 polymerization kinetics by fluorescence quenching (3 µM Alexa488-BCL10, MALT1 at 0, 1.5, 3, 6 and 12 µM) [5]
1 | binds | BCL10^E140X (recombinant, after 3C cleavage of the MBP tag) (other, Alexa488 (C5-maleimide) on cysteine residues in the confocal and quenching assays, Range 1-139 from the name E140X; Made as His-MBP-3C site-BCL10; MBP removed by 3C protease; also called E140X filaments; BCL10 (1-140)) MEPTAPSLTEEDLTEVKKDALENLRVYLCEKIIAERHFDHLRAKKILSREDTEEISCRTSSRKRAGKLLDYLQENPKGLDTLVESIRREKTQNFLIQKITDEVLKLRNIKLEHLKGLKCSSCEPFPDGATNNLSRSNSD | ≤ 100 |  |  | 
2 |  | Full length His-tagged MALT1 (protein) SLLGDPLQALPPSAAPTGPLLAPPAGATLNRLREPLLRRLSELLDQAPEGRGWRRLAELAGSRGRLRLSCLDLEQCSLKVLEPEGSPSLCLLKLMGEKGCTVTELSDFLQAMEHTEVLQLLSPPGIKITVNPESKAVLAGQFVKLCCRATGHPFVQYQWFKMNKEIPNGNTSELIFNAVHVKDAGFYVCRVNNNFTFEFSQWSQLDVCDIPESFQRSVDGVSESKLQICVEPTSQKLMPGSTLVLQCVAVGSPIPHYQWFKNELPLTHETKKLYMVPYVDLEHQGTYWCHVYNDRDSQDSKKVEIIIGRTDEAVECTEDELNNLGHPDNKEQTTDQPLAKDKVALLIGNMNYREHPKLKAPLVDVYELTNLLRQLDFKVVSLLDLTEYEMRNAVDEFLLLLDKGVYGLLYYAGHGYENFGNSFMVPVDAPNPYRSENCLCVQNILKLMQEKETGLNVFLLDMCRKRNDYDDTIPILDALKVTANIVFGYATCQGAEAFEIQHSGLANGIFMKFLKDRLLEDKKITVLLDEVAEDMGKCHLTKGKQALEIRSSLSEKRALTDPIQGTEYSAESLVRNLQWAKAHELPESMCLKFDCGVQIQLGFAAEFSNVMIIYTSIVYKPPEIIMCDAYVTDFPLDLDIDPKDANKGTPEETGSYLVSKDLPKHCLYTRLSSLQKLKEHLVFTVCLSYQYSGLEDTVEDKQEVNVGKPLIAKLDMHRGLGRKTCFQTCLMSNGPYQSSAATSGGAGHYHSLQDPFHGVYHSHPGNPSNVTPADSCHCSRTPDAFISSFAHHASCHFSRSNVPVETTDEIPFSFSDRLRISEK |  | there was little suppression of BCL10^E140X polymerization by MALT1 at any dose | increasing doses of MALT1 suppressed BCL10^WT and BCL10^R58Q filament formation in a dose dependent manner | increasing doses of MALT1 suppressed BCL10^WT and BCL10^R58Q filament formation in a dose dependent manner
3 | binds | BCL10^WT (recombinant, full-length, after 3C cleavage of the MBP tag) (other, Alexa488 (C5-maleimide) on cysteine residues in the confocal and quenching assays, Made as His-MBP-3C site-BCL10 (vector pDB-His-MBP); MBP removed by 3C protease to start filament formation; Forms helical filaments (number of copies not fixed); also called BCL10 FL; BCL10 WT filaments) MEPTAPSLTEEDLTEVKKDALENLRVYLCEKIIAERHFDHLRAKKILSREDTEEISCRTSSRKRAGKLLDYLQENPKGLDTLVESIRREKTQNFLIQKITDEVLKLRNIKLEHLKGLKCSSCEPFPDGATNNLSRSNSDESNFSEKLRASTVMYHPEGESSTTPFFSTNSSLNLPVLEVGRTENTIFSSTTLPRPGDPGAPPLPPDLQLEEEGTCANSSEMFLPLRSRTVSRQ | ~500 |  |  | 
4 |  | BCL10^R58Q (recombinant, full-length, after 3C cleavage of the MBP tag) (other, Alexa488 (C5-maleimide) on cysteine residues in the confocal and quenching assays, Made as His-MBP-3C site-BCL10; MBP removed by 3C protease; Forms filaments; also called R58Q filaments) MEPTAPSLTEEDLTEVKKDALENLRVYLCEKIIAERHFDHLRAKKILSREDTEEISCQTSSRKRAGKLLDYLQENPKGLDTLVESIRREKTQNFLIQKITDEVLKLRNIKLEHLKGLKCSSCEPFPDGATNNLSRSNSDESNFSEKLRASTVMYHPEGESSTTPFFSTNSSLNLPVLEVGRTENTIFSSTTLPRPGDPGAPPLPPDLQLEEEGTCANSSEMFLPLRSRTVSRQ | ~250 |  |  | 

From patent US20240026461A1, “BCL10 MUTATIONS AS BIOMARKERS FOR TARGETED THERAPY IN B CELL LYMPHOMAS” (priority 2022, published 2024)
